Laboratory results: PMC5320558, “The general PTS component HPr determines the preference for glucose over mannitol” (Scientific Reports, 2017)
One block for each molecule: values may come before it.

How the values were obtained:
[1] = target: Untagged HPr (wild type) (E. coli) (UniProt P0AA04); assay: SEC; gel filtration on Superose 12 10/300 GL of MtlR alone, HPr alone and their mixture; fractions analysed by SDS-PAGE
[2] = target: Untagged HPr (wild type) (E. coli) (UniProt P0AA04); assay: SPR; HPr immobilised on a CM5 sensor chip, various concentrations of MtlR applied; BIAcore 3000; BIAevaluation, assuming a 1:1 interaction
[3] = target: the molecule itself; assay: SEC; gel filtration on Superose 12 10/300 GL of MtlR alone, HPr alone and their mixture; fractions analysed by SDS-PAGE

stoichiometry N [1]: 1 HPr:MtlR
Kd [2]: 62.2 nM
Molecule: Untagged MtlR (mannitol operon repressor) (from UniProt P0AF10 1-195) (natural protein)

B1: Untagged MtlR (mannitol operon repressor) (natural protein, E. coli, UniProt P0AF10 1-195, looked up)
chain: MVDQAQDTLRPNNRLSDMQATMEQTQAFENRVLERLNAGKTVRSFLITAVELLTEAVNLLVLQVFRKDDYAVKYAVEPLLDGDGPLGDLSVRLKLIYGLGVINRQEYEDAELLMALREELNHDGNEYAFTDDEILGPFGELHCVAALPPPPQFEPADSSLYAMQIQRYQQAVRSTMVLSLTELISKISLKKAFQK
notes: MtlR, transcriptional repressor of the mtl operon, E. coli; monomer approximately 22.0 kDa; Eluted as a tetramer in gel filtration; source: overexpressed, purified (MonoQ, Superdex 75)
stoichiometry N [3]: 4
